test: soluble on expression in E. coli; label from the status in PepcDB or PDB records

| Sequence | soluble on expression in E. coli |
| --- | --- |
| MESLNEYMDKIINRLKAVNEKDELVDEGMRKLQKCQEKIMKTRIDAQKHIDERHEQQSFEQQLLNKNMFETEQLEEKLKRLDDENKIGNEREFNKKLEAISAKWTDDVNLLKTTPNEPNDGNRKKLSNLSNILV | not soluble |
| MKAVSRVHITPHMHWDREWYFTTEESRILLVNNMEEILCRLEQDNEYKYYVLDGQTAILEDYFAVKPENKDRVKKQVEAGKLIIGPWYTQTDTTIVSAESIVRNLMYGMRDCLAFGEPMKIGYLPDSFGMSGQLPHIYNGFGITRTMFWRGCSERHGTDKTEFLWQSSDGSEVTAQVLPLGYAIGKYLPADENGLRKRLDSYFDVLEKASVTKEILLPNGHDQMPLQQNIFEVMDKLREIYPQRKFVMSRFEEVFEKIEAQRDNLATLKGEFIDGKYMRVHRTIGSTRMDIKIAHARIENKIVNLLEPLATLAWTLGFEYHHGLLEKMWKEILKNHAHDSIGCCSDKVHREIVARFELAEDMADNLIRFYMRKIADNMPQSDADKLVLFNLMPWPREEVINTTVRLRASQFNLRDDRGQPVPYFIRHAREIDPGLIDRQIVHYGNYDPFMEFDIQINQIVPSMGYRTLYIEANQPGNVIAAKSDAEGILENAFWQIALNEDGSLQLVDKDSGVRYDRVLQIEESSDDGDEYDYSPAKEEWVITAANAKPQCDIIHEAWQSRAVIRYDMAVPLNLSERSARQSTGRVGVVLVVTLSHNSRRIDVDINLDNQADDHRLRVLVPTPFNTDSVLADTQFGSLTRPVNDSAMNNWQQEGWKEAPVPVWNMLNYVALQEGRNGMAVFSEGLREFEVIGEEKKTFAITLLRGVGLLGKEDLLLRPGRPSGIKMPVPDSQLRGLLSCRLSLLSYTGTPTAAGVAQQARAWLTPVQCYNKIPWDVMKLNKAGFNVPESYSLLKMPPVGCLISALKKAEDRQEVILRLFNPAESATCDATVAFSREVISCSETMMDEHITTEENQGSNLSGPFLPGQSRTFSYRLA | not soluble |
| MGSDKIHHHHHHMLISVVLPAYNVQDTIGESIDSILSQTFTDFELIIINDGSQDNTEEVIHAYSDKRIRYYRNEKNEGLIYTLNRGLDLAQGKYIARMDADDVSLPTRFEKQVKVMEESPNIVVCGTQIILFGVDTAKRFTLFLPEESEDLKNLLFIQTCFAHPTVMVRRQVLIDNEVRYDADYPHAEDYKMWIDLSLLGEFYNIQEPLLRYRLSDGQVSHKFSDVQKRTASACRRFLISARFKDEKLDRQIENSIDISTICYIKKKEYPRELLEVLYSSLRKYNFKCLCYLFVSGDIFRFEIVVALALLKRFIIKKDRLL | not soluble |
| TMNNEMSDPQIEEFYTIVKELEKFDTFTNFLDVHQPELAIVFGRTKRRVDELTSALISKGYKAEGLHGDITQAKRLEVLKKFKNDQINILVATDVAARGLDISGVSHVYNFDIPQDTESYTHRIGRTGRAGKEGIAVTFVNPIEMDYIRQIEDANGRKMSALRPPHRKEVLQAREDDIKEKVENWMSKESESRLKRISTELLNEYNDVDLVAALLQELVEANDEVEVQLTFEKPLSRKGRNGKPSGSR | not soluble |
| MGSDKIHHHHHHMIERIYLAKPRGFCAGVVMAIQAVEKAAVREDKPVTVYHSIVHNHTVVERLSEGGRVHFVEDLDAVDALPDSGDTVIFSAHGISPAVRERARSLGLSTIDATCPLVTKVHTEAKKYAREGYTILLIGDSAGHQEVIGTRGEAPENTILVGVLGKTGPGLNDPHAVQVPDPERLVVLTQTTLSVDDTRKTVDILKARFPALVVPPSEDLCYATKNRQDAVKNIAPNVDAFLVLTSTHSSNGMRLLELAEAECGRAYRLETAADLTRLEQNGDLGGVRSVGITSAASTPDDLVQDVVAHFRALNPALEVIEEGEWENIEFREPKKIAPTQELPRTMQ | not soluble |
| QLSPDIYAKSCPNLVQIVRKQVAIALKAEIRMAASLIRLHFHDCFVNGCDASLLLDGADSEKLAIPNINSARGFEVIDTIKAAVENACPGVVSCADILTLAARDSVVLSGGPGWRVALGRKDGLVANQNSANNLPSPFEPLDAIIAKFVAVNLNITDVVALSGAHTFGQAKCAVFSNRLFNFTGAGNPDATLETSLLSNLQTVCPLGGNSNITAPLDRSTTDTFDNNYFKNLLEGKGLLSSDQILFSSDLAVNTTKKLVEAYSRSQSLFFRDFTCAMIRMGNISNGASGEVRTNCRVINN | soluble |
| MLRFFIQPQLNTIVDSVIGYEMLIKEYRDGTWRMPASFSAIPAHDMAELLIATAKELSLKVGSVSFNVDRNQILDDQLIHALIAAQTVLRPVKLIIELIENDVKPSVSDEQLIEVVTQLNDFGIQFCLDDVGSGINTWPAVKPLLPYTRELKYALQNYKEHLNESAAENHVTFWQNLATKHQMRFILEGIEDDNDDAWADSMNIDLRQGYYYGRP | not soluble |
| NSLSTDMSVNRDNRTITSSIMRVSNSSELIQFKNKTAPYFSEKRNVEVNINGVAKDIYGRQIVCRHLASYWEMNFMETNGKVNYQLLSTPDAIAKNVCLEKTEDFSKSPAYIYFVENKKWGTVITNFFYNMKKNGDFVRTLSACTLNHQMALGLKIKRVQESEKWVVQFFDPNRTVTHKRTVFTCDSHFELSQLSAKDFFDDFYWKIYGLEQPGQVIFEDRHNSPLTNTVKLLPDELINSRVIYHAITKNLTEVLFILMEKYKNGEISQSKLVNLLATRSSDGTPAFYIALQNGYSDIIQVYGKILNMCNLSQETILTLLAAVGANNVPGLCMSFMNGHVDTIKAYGEIVFKTPLTSDKRLYLLAAKDSHDLPGLFFALQNGHADSIRMFGSLLNKKMLSSEQIKELLKVKHGLFMALQNGHTKAIMAYGDILKILPPHQEYIDELLWIKNPNGTSGLFMAFYNGHTETIRAFCNILKNYSFTTRRLVEMLSATNKDGIPGVFVSVVNRDKETILEYCRIIKENNLEPDTIAEQFSKKMKKTFIEIINRFNHFL | soluble |
| MSGTEEAILGGRDSHPAAGGGSVLCFGQCQYTAEEYQAIQKALRQRLGPEYISSRMAGGGQKVCYIEGHRVINLANEMFGYNGWAHSITQQNVDFVDLNNGKFYVGVCAFVRVQLKDGSYHEDVGYGVSEGLKSKALSLEKARKEAVTDGLKRALRSFGNALGNCILDKDYLRSLNKLPRQLPLEVDLTKAKRQDLEPSVEEARYNSCRPNM | soluble |
| MSLEVIKHDGPGRLGVIRLEPPVQTPALAGVDFTISPFNSYFNPKEYHDYDFNLAPSIPLSYYTPDEVIEKALKRIETVDYSKFNTFYFPALKRDKYYPRFVELIEENDFDAIYIGNSKVMIKDYRGFVATLRILREKFPNAVLITDLEPFFYPLAVYLGVDAFDVRSLKIYSYEGLGFTPFSPVIWDRPNDPIEFAREMIKIIKIAIQEGKLRYLVENFLPTVMNVGILRIADKEHGDYLEKYTPVHDKTVVFISEHSISRPEVFRWRKRIEERFEPPKGIDLLLIFPCSAKKPYSRSRSHMMYRKVMKEALGEKVHRVHELVVTSPYGVVPREWEWLAKYDIVVTGHWSESEVRFAGELLAQTIEKYPDIPIVAHVEGGYREAVKYAMELVNRDVIFTAVGSSTISKESLDKLKKTLKEFDLRDAEKDYRRYRFYENVRKVFDYYFGLGAGEAVLPENAQIVGSKMLRLIVNNSQTGTFQEGVISVTPFGMQRIYDKLNSYWVEVDFDIRGDVFAAGVERADEGIRPNDIVGIVRDGRVVAVGRAVLSGEEMVRAKKGIAVRVRKRVKNKEGHHHHHH | soluble |
| MSLEKVKVAVIGAGNRGMYAYAPYIYENSDVCEIVAVAEPKKGRRELFTKKYNLDSKNVFETLEDFFKHDKMADAVIIATNDDRHYDVAKLALEKGYHVLLEKPMSNSLDGLVHIDDLCDKYKDKIFMICHVLRYSPFYNKLKEIVESKKLGELVSIQYNENIGYWHFAHSFTRGNWRNSNETSPLILAKSCHDMDILLYLVGSRCKKISAFGSLKHLNNQNASGEMAQNCLQCLVEKKCPYSAKRIYLEKDRSINRAVHINPTEENLLNILKTSPYGRCVYRCDNNVVDNMVNILQFENGVTATFNLCAFTKENGRTIKLMFSHGEVGGDLNKNEIRIKEFGKNEEIVMNPSNQQNMVEEYDRNLIAEFIKLVSNKELEKGRVAAKEAIQSHVMAFAAEYSRVSDEVVYIEEFFDSAKQMTKEIEETEGHHHHHH | soluble |
| MKLSCVIVSHNMKNYIGRCIDSVRTALADIRSLVGEAEIIVVDRGSTDGTANAARTAYADVTIVDVPFDAGWATAANKGACAATGETLLFVSPEVELLSGGLPRLLEHLETNPACAIAGGAVVSTSGALLHGPARFPGLLGKLAALTGLGSRFPRTMLDWTRYGGRNLDLPLEVDSVSFDYAVVKAAAFCKLGRFDARFHTAFADTDLCRRASRTMLPRPTVAFVPQARARAQDNFVLRDEVQAFDLHGTAVVRGRVRCEMLYVWKNYCILTSLANTTLELVGQACRYAMGLLPVIGCDKTARHSAAVLKETAQAALDTQLGSQYPTTPWLEHHHHHH | not soluble |
| MADTTILDTTCSSTLAANVEFSHATDSAIGISLKNATITEAEGVPNLKETGYDCVRYMGTCNGGQIYLGRERKKLKDYVAIKKFAIDDVDDYAAIAKESSNLRLMHHPNIIELCECFVYERSIYQITPAMNLGSLFDIVFEYMKWGINEKSAAAITRQLLDALSYLHQRRYIHRDLKPKHILIDSSGNVKLSGFRFMIELNHHLDCVFEFDAHLQNQLYYLAPEVLAQNIHGYTSKSDIYMLGISICEAINGVMPFGELEPLEMLHRKLNGQVPRPVDMISLKDDQKMGLDISHRPQEHLTRRFSKEMHEFIANCLDYDPQQRGSASDLKSSAWLGSKIHKNLGPVDVRQELNLDYAHFDLSLWEQEPLIPMEPDQKYEIVFDYSPIS | not soluble |
| MLLWVFEYNSVSRASWGDRVPVDKNSCACLEGGYAACLCGVAKSVKGRPVLRGVSLSVKFGEIHVLAGLNGAGKTTSLRVLVGLLSRDSGEARVLGVDPWGGGFERVKGEVGYLPEDASVYERLTGMENILFYARLYSGWRDVEELVENAVFYSGLSREDLARRAGGYSKGMKRRLLLGITLMSKPRLVVLDEPTSGVDPIASNRIKKILRGLSREGRAILVTTHDLALAEEIADRVTIIHGGSTVASGPPYRLVEEYCGETLEDAFVNIVTGGGC | soluble |
| GMMNTTQEGRQRLAERLADTVAQALEADLAKRERALLVVSGGSTPKPFFTSLAAKALPWARVDVTLADERWVTADDADSNARLVRETLLVGPAAEACFHPLTTDDDTPEAGVETVAERLESLPWPASAVILGMGGDGHTASLFPDSEQLATALETTSAAVVVHAPSVPQARITLSASRLADAGLHVLHITGNDKRRVLAEALAGDDVRQLPIRAFLSQPIATYWAP | soluble |
| MLNADLKQQLKQLLELMEGNVEFVASLGSDDKSKELKDLLTEITDMSPRLSLSEKSLKRTPSFSVNRPGEETGVTFAGIPLGHEFNSLVLAILQVSGRAPKEKQSIIDQIKKLEGSFHFETFISLTCQKCPDVVQALNLMSVINPNITHSMIDGAVFREESENIMAVPAVFLNGEEFGNGRMTIQDILSKLGSTADASEFENKEPYDVLIVGGGPASGSAAIYTARKGLRTGIVADRIGGQVNDTAGIENFITVKETTGSEFSSNLAAHIDQYDIDAMTGIRATDIEKTDEAIKVTLENGAVLESKTVIIATGAGWRKLNIPGEEQLINKGVAFCPHCDGPLFENKDVAVIGGGNSGVEAAIDLAGIVNHVTLFEFASELKADNVLQDRLRSLSNVDIKTNAKTTEVVGEDHVTGIRYEDMNTGEEHLLNLDGIFVQIGLLPNTSWLNDAVELNERGEIVIDRNNNTNVPGIFAAGDVTDQKNKQIIISMGAGANAALNAFDYIIRN | not soluble |
| MFFVLSPAKNLNEKDPAPVSEFTQPDLLAESDILMQQLRELAPQQIAELMHVSDKIALLNAQRNAEWNTPFTPENAKQAVFMFNGDVYEGMDANTLDIGQIRYLQNHVRLLSGLYGLLRPLDLIQPYRLEMGTAFANLRGKNLYEFWGDIITNLLNDTLAQAGSNTLVNLASQEYFKSVNTKKLRARLITPIFKDEKNGKYKIISFYAKRARGLMVRYAAEHHITDPEMLKNFNYEGYAFNDAASNESEWVFMRSEQIK | not soluble |
